Data on 27 sequences can be found in the Immune Epitope Database (IEDB).

pIC50, pKd: −log10 of the molar value.

The first experiment has as its target HLA-A*11:01. As to the kind of experiment: IEDB peptide-MHC binding, purified MHC/competitive/radioactivity; ≥ and ≤ were set here for values at or beyond the usual limits of such assays. The conditions noted are these: source organism: Human papillomavirus 16.
What is called pIC50 is −log10 of the IC50, conventionally taken in molar units. As for AMFQDPQER, the pIC50 is 7.92.
The same measure, in the same setting: as for AVCDKCLK, the figure is 6.30; as for DIILECVYCK, 6.55; as for FQDPQERPRK, 6.34.
The same measure, in the same setting: as for GIVCPICSQK, the figure is 7.01; as for GTTLEQQYNK, 8.22.
Still for that read-out and setting: as for IILECVYCK, the figure is 6.90; as for ISEYRHYCY, 6.78; as for IVYRDGNPY, 7.68.
Take LLIRCINCQK: the pIC50 was 7.62.
As to TTLEQQYNK, the pIC50 is 8.22.

The target in another experiment is HLA-A*24:02. The experiment is described as above. As to conditions: source organism: Human papillomavirus 16.
As to CYSLYGTTL, the pIC50 was 6.86.
Same read-out and setting: as for FYSRIREL, the figure is 6.34; as for RAHYNIVTF, 6.54; as for RFHNIRGRW, 6.66.
For VYDFAFRDL, the pIC50 was 6.44.

A further experiment addresses HLA-A*01:01. The experiment is described as above. The conditions noted are these: source organism: Human papillomavirus 16.
Consider ETTDLYCY, for which the pIC50 was 6.49.
Still for that read-out and setting: as for ISEYRHYCY, the figure is 7.31; as for YSKISEYRHY, 6.83.

The target in a further experiment is HLA-A*03:01. Described as above. As to conditions: source organism: Human papillomavirus 16.
In the case of AMFQDPQER, the pIC50 is 6.54.
For HLDKKQRFH, the pIC50 was 7.17.
As to LLIRCINCQK, the pIC50 is 7.04.

A further experiment has as its target HLA-A*11:01. As to the kind of experiment: IEDB peptide-MHC binding, purified MHC/competitive/radioactivity; filed as Kd, often an IC50 or EC50 that approximates it; ≥ and ≤ were set here for values at or beyond the usual limits of such assays. As to conditions: source organism: Human papillomavirus 16.
By pKd is commonly meant −log10 of the Kd, conventionally taken in molar units. On to QQLLRREVY, for which the pKd was 5.92.

For the next experiment, the target named is HLA-A*24:02. Described as above. The conditions noted are these: source organism: Human papillomavirus 16.
For LLRREVYDF, the pKd was 5.32.
On the same count and under the same terms, as for MHQKRTAMF, the figure is 5.35.

The next experiment deals with HLA-A*01:01. The experiment is described as above. As to conditions: source organism: Human papillomavirus 16.
In the case of EIDGPAGQA, the pKd is 5.49.
The same measure, in the same setting: as for HVDIRTLED, the figure is 5.42; as for QAEPDRAHY, 5.55; as for TTDLYCYEQ, 5.42.

The target in the next experiment is HLA-A*03:01. The experiment is described as above. As to conditions: source organism: Human papillomavirus 16.
Turning to IILECVYCK, the pKd is 5.43.
On the same count and under the same terms, as for SLYGTTLEQ, the figure is 5.43.
